Laboratory results taken from patent US20230063116A1 (Regeneron, published 2023).
Like-named read-outs stand apart in the source and are kept apart here.

B1: VEGF121 (hVEGF121, aa 207-327) (ligand)
chain: APMAEGGGQNHHEVVKFMDVYQRSYCHPIETLVDIFQEYPDEIEYIFKPSCVPLMRCGGCCNDEGLECVPTEESNITMQIMRIKPHQGQHIGEMSFLQHNKCECRPKKDRARQEKCDKPRR
B2: REGN112 (receptor)
chain: SDTGRPFVEMYSEIPEIIHMTEGRELVIPCRVTSPNITVTLKKFPLDTLIPDGKRIIWDSRKGFIISNATYKEIGLLTCEATVNGHLYKTNYLTHRQTNTIIDVVLSPSHGIELSVGEKLVLNCTARTELNVGIDFNWEYPSSKHQHKKLVNRDLKTQSGSEMKKFLSTLTIDGVTRSDQGLYTCAASSGLMTKKNSTFVRVHEKDKTHTCPPC
B3: human VEGF165 (REGN110) (ligand)
chain: APMAEGGGQNHHEVVKFMDVYQRSYCHPIETLVDIFQEYPDEIEYIFKPSCVPLMRCGGCCNDEGLECVPTEESNITMQIMRIKPHQGQHIGEMSFLQHNKCECRPKKDRARQENPCGPCSERRKHLFVQDPQTCKCSCKNTDSRCKARQLELNERTCRCDKPRR
notes: It is treated here as the same molecule; also called hVEGF165; hVEGF165(M1-R191)
B4: REGN7483^F (homodimer mini-trap, FabRICATOR cleaved from aflibercept) (receptor)
chain: SDTGRPFVEMYSEIPEIIHMTEGRELVIPCRVTSPNITVTLKKFPLDTLIPDGKRIIWDSRKGFIISNATYKEIGLLTCEATVNGHLYKTNYLTHRQTNTIIDVVLSPSHGIELSVGEKLVLNCTARTELNVGIDFNWEYPSSKHQHKKLVNRDLKTQSGSEMKKFLSTLTIDGVTRSDQGLYTCAASSGLMTKKNSTFVRVHEKDKTHTCPPCPAPELLG
modifications: here or on the partner: N-linked glycans at N36, N68, N123, N196 (Table C)
B5: REGN7483^R (homodimer mini-trap, recombinant) (receptor)
chain: B4 chain
modifications: here or on the partner: N-linked glycans at N36, N68, N123, N196 (Table C)
B6: REGN3, full-length VEGF Trap (aflibercept) (Fc fusion, human, UniProt P17948 129-231, looked up, not shown: a dimerising Fc or GST)
chain: SDTGRPFVEMYSEIPEIIHMTEGRELVIPCRVTSPNITVTLKKFPLDTLIPDGKRIIWDSRKGFIISNATYKEIGLLTCEATVNGHLYKTNYLTHRQTNTIIDVVLSPSHGIELSVGEKLVLNCTARTELNVGIDFNWEYPSSKHQHKKLVNRDLKTQSGSEMKKFLSTLTIDGVTRSDQGLYTCAASSGLMTKKNSTFVRVHEK
notes: range 129-231;range 226-327; also called Eylea; VEFGR1d2-VEGFR2d3 VEGF Trap

Key:
[1] = target: chimeric VEGFR1 receptors on HEK293/D9/Flt-IL18Rα/Flt-IL18Rβ clone V3H9 cells (UniProt P17948); assay: cell-based or functional assay
[2] = target: chimeric VEGFR1 receptors on HEK293/D9/Flt-IL18Rα/Flt-IL18Rβ clone V3H9 cells (UniProt P17948); assay: cell-based or functional assay; remark: listed apart in the source
[3] = target: chimeric VEGFR1 receptors on HEK293/D9/Flt-IL18Rα/Flt-IL18Rβ clone V3H9 cells (UniProt P17948); assay: cell-based or functional assay; remark: listed apart in the source
[4] = target: T1, chimeric VEGFR1 receptors on HEK293/D9/Flt-IL18Rα/Flt-IL18Rβ clone V3H9 cells (UniProt P17948 27-758; Q13478 351-541; P17948 27-758; O95256 378-599, limits assumed); assay: cell-based or functional assay
[5] = target: T1, chimeric VEGFR1 receptors on …; assay: cell-based or functional assay; remark: listed apart in the source
[6] = target: T1, chimeric VEGFR1 receptors on …; assay: cell-based or functional assay; remark: listed apart in the source
[7] = target: B1; assay: cell-based or functional assay
[8] = target: T2, VEGF110 (hVEGF110, aa 207-318) (human, UniProt P15692 207-318); assay: cell-based or functional assay
T2 sequence (looked up): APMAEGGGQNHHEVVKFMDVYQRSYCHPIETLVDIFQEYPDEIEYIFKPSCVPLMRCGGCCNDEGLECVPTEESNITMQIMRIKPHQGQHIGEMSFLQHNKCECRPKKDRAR

human VEGF165 (REGN110) [9] = target: B3; assay: cell-based or functional assay
[10] = target: B6; assay: SPR, Biacore 3000, 25 C; trap captured on anti-VEGFR1 mAb surface, hVEGF165 injected; 1:1 fit
[11] = target: B6; assay: SPR, Biacore, 25 C; trap captured on anti-VEGFR1 mAb surface, hVEGF165 injected; 1:1 fit
Procedure: (§1) Experimental Procedure. Equilibrium dissociation constants (KD values) for human VEGF₁₆₅ binding to various purified VEGF mini-trap constructs were determined using a real-time surface plasmon resonance biosensor using a Biacore 3000 instrument. All binding studies were performed in 10 mM HEPES, 150 mM NaCl, 3 mM EDTA, and 0.05% v/v Surfactant Tween-20, pH 7.4 (HBS-ET) running buffer at 25° C. The Biacore sensor surface was first derivatized by amine coupling with a monoclonal mouse anti-VEGFR1 antibody to capture VEGF mini-trap constructs. Binding studies were performed on the human VEGF reagent, human VEGF₁₆₅ (human VEGF₁₆₅; SEQ ID NO: 31). Different concentrations of VEGF₁₆₅ reagent, prepared in HBS-ET running buffer (2 nM — 62.5 pM; 2-fold serial dilution for human VEGF₁₆₅), were injected over an anti-VEGFR1-captured VEGF mini-trap construct surface for 1.8 minutes at a flow rate of 90 μL/minute, while the dissociation of VEGF mini-trap constructs bound VEGF₁₆₅ reagent was monitored for 60 minutes in HBS-ET running buffer. Kinetic association (kₐ) and dissociation (kd) rate constants were determined by fitting the real-time sensorgrams to a 1:1 binding model using Scrubber 2.0c curve fitting software. Binding dissociation equilibrium constants (KD) and dissociative half-lives (t½) were calculated from the kinetic rate constants as: […]

[12] = target: VEGF121 (hVEGF121, aa 207-327) (human), P15692; assay: cell-based or functional assay
human VEGF165 (REGN110) [13] = target: B3; assay: SPR, Biacore 3000, 25 C; trap captured on anti-VEGFR1 mAb surface, hVEGF165 injected; 1:1 fit
human VEGF165 (REGN110) [14] = target: B3; assay: SPR, Biacore 3000, 25 C; trap captured on anti-VEGFR1 mAb surface, hVEGF165 injected
[15] = target: T2, VEGF110 (hVEGF110, aa 207-318); assay: cell-based or functional assay; remark: listed apart in the source
[16] = target: B1; assay: cell-based or functional assay
human VEGF165 (REGN110) [17] = target: B3; assay: cell-based or functional assay; remark: listed apart in the source
human VEGF165 (REGN110) [18] = target: B3; assay: SPR, Biacore, 25 C; trap captured on anti-VEGFR1 mAb surface, hVEGF165 injected; 1:1 fit
Procedure: as §1

[19] = target: T2, VEGF110 (hVEGF110, aa 207-318); assay: cell-based or functional assay; remark: listed apart in the source
[20] = target: B1; assay: cell-based or functional assay
human VEGF165 (REGN110) [21] = target: B3; assay: cell-based or functional assay; remark: listed apart in the source
human VEGF165 (REGN110) [22] = target: B3; assay: SPR, Biacore, 25 C; trap captured on anti-VEGFR1 mAb surface, hVEGF165 injected
Procedure: as §1

[23] = target: T2, VEGF110 (hVEGF110, aa 207-318); assay: cell-based or functional assay; remark: listed apart in the source
[24] = target: B1; assay: cell-based or functional assay

T1 sequence (P17948 other isoform, or with tags, fused parts or gaps mutant limits assumed, chain 1 of 2): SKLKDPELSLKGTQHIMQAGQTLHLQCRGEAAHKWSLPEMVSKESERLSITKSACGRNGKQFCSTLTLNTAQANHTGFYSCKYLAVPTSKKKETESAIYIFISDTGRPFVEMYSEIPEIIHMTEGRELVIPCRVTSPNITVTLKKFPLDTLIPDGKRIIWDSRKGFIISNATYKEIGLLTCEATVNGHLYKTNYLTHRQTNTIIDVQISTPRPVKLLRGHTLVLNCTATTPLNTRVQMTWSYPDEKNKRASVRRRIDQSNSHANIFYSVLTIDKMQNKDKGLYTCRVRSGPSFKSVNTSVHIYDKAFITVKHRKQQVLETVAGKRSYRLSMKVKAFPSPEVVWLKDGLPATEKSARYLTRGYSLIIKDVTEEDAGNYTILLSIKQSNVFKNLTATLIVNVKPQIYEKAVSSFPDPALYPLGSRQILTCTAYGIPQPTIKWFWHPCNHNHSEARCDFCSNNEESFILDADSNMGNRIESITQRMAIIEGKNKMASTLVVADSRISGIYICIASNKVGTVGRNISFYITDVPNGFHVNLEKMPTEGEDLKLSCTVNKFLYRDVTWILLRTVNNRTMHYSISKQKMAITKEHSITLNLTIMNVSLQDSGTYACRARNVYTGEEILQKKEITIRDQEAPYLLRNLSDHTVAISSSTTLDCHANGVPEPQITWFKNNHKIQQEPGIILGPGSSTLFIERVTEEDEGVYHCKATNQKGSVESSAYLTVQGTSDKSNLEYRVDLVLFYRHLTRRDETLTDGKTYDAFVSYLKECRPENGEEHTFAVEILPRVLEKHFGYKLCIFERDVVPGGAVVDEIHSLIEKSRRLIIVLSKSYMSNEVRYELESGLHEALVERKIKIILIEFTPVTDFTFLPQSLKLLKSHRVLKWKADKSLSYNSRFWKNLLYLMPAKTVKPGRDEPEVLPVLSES
T1 sequence (P17948 other isoform, or with tags, fused parts or gaps mutant limits assumed, chain 2 of 2): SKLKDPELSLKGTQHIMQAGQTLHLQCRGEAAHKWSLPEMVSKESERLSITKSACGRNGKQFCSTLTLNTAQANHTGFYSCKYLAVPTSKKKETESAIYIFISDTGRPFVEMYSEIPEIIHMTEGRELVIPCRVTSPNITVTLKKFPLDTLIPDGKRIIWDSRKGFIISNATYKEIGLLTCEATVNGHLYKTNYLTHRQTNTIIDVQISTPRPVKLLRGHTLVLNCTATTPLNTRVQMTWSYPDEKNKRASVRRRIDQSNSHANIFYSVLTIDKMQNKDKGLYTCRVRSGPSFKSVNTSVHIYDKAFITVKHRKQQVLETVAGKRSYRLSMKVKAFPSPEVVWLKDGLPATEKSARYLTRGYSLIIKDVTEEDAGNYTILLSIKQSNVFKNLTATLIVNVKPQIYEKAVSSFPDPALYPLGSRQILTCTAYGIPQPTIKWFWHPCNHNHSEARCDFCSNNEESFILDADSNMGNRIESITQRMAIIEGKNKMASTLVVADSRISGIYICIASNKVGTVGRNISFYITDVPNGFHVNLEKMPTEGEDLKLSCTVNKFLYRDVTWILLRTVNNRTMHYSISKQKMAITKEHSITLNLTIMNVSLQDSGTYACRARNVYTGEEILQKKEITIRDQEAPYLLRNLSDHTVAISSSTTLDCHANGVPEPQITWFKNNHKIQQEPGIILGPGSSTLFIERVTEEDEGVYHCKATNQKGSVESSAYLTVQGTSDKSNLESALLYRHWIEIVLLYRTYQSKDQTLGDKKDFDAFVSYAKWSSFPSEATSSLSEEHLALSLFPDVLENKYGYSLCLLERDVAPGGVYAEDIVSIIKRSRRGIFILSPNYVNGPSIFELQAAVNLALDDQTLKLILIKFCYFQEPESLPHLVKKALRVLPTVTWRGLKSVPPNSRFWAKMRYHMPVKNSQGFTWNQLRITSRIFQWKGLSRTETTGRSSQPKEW
Chain of chimeric VEGFR1 receptors on HEK293/D9/Flt-IL18Rα/Flt-IL18Rβ clone V3H9 cells (UniProt P17948) (P17948 other isoform, or with tags, fused parts or gaps mutant limits assumed, chain 1 of 2): as the sequence (P17948 other isoform, or with tags, fused parts or gaps mutant limits assumed, chain 1 of 2) above
Chain of chimeric VEGFR1 receptors on HEK293/D9/Flt-IL18Rα/Flt-IL18Rβ clone V3H9 cells (UniProt P17948) (P17948 other isoform, or with tags, fused parts or gaps mutant limits assumed, chain 2 of 2): as the sequence (P17948 other isoform, or with tags, fused parts or gaps mutant limits assumed, chain 2 of 2) above

Question: With “VEGF110 (hVEGF110, aa 207-318) (from UniProt P15692 207-318) (ligand)” as the molecule, how does the EC50 (M), activation of HEK293/D9/Flt-IL18Ra/Flt-IL18Rb (luciferase) [1] read?
Answer: Its EC50 (M), activation of HEK293/D9/Flt-IL18Ra/Flt-IL18Rb (luciferase) is 2.4e-11 M.

Question: What about the EC50 (M), activation of HEK293/D9/Flt-IL18Ra/Flt-IL18Rb (luciferase) [2] of the same molecule?
Answer: The EC50 (M), activation of HEK293/D9/Flt-IL18Ra/Flt-IL18Rb (luciferase) was 1.14e-11 M.

Question: And the EC50 (M), activation of HEK293/D9/Flt-IL18Ra/Flt-IL18Rb (luciferase) [3]?
Answer: The EC50 (M), activation of HEK293/D9/Flt-IL18Ra/Flt-IL18Rb (luciferase) was 1.51e-11 M.

Question: Which “EC50 (M), activation of HEK293/D9/Flt-IL18Ra/Flt-IL18Rb (luciferase)” value [4] does the source give for B1 here?
Answer: The value was 2.12e-11 M.

Question: What about the “EC50 (M), activation of HEK293/D9/Flt-IL18Ra/Flt-IL18Rb (luciferase)” value [5] of the same molecule?
Answer: The value was 4.4e-11 M.

Question: What about the “EC50 (M), activation of HEK293/D9/Flt-IL18Ra/Flt-IL18Rb (luciferase)” value [6] of the same molecule?
Answer: The value was 2.56e-11 M.

Question: How did the “IC50 (read off the curve); VEGFR1 reporter luciferase with 40 pM VEGF121 constant” value [7] turn out when B2 was run?
Answer: Its value is about 1e-10 M.

Question: And the “IC50 (read off the curve); VEGFR1 reporter luciferase with 20 pM VEGF110 constant” value [8]?
Answer: Its value is about 1e-10 M.

Question: And the “IC50 (read off the curve); VEGFR1 reporter luciferase with 40 pM VEGF165 constant” value (human VEGF165 (REGN110) [9])?
Answer: Its value is about 2e-10 M.

Question: For B3, which Kd [10] is on record?
Answer: Its Kd is at most 1.79 pM.

Question: And the “EC50 (M), activation of HEK293/D9/Flt-IL18Ra/Flt-IL18Rb (luciferase)” value [5]?
Answer: Its value is 4.3e-11 M.

Question: And the Kd [11]?
Answer: Its Kd is at most 1.27 pM.

Question: How did the IC50 (M), inhibition of VEGFR1 signaling (luciferase), 20 pM VEGF121 [12] turn out when B4 was run?
Answer: The IC50 (M), inhibition of VEGFR1 signaling (luciferase), 20 pM VEGF121 was 9.27e-12 M.

Question: Which IC50 (M), inhibition of VEGFR1 signaling (luciferase), 20 pM VEGF121 [12] does the source give for B5 here?
Answer: The IC50 (M), inhibition of VEGFR1 signaling (luciferase), 20 pM VEGF121 was 8.79e-12 M.

Question: With B6 as the molecule, how does the “t½ (dissociative half-life)” value (human VEGF165 (REGN110) [13]) read?
Answer: Its value is at least 1160 min.

Question: And the “100 nM hVEGF165 Bound” value (human VEGF165 (REGN110) [14])?
Answer: Its value is 21 RU.

Question: What about the “IC50 (M), inhibition of VEGFR1 signaling (luciferase), 20 pM VEGF110” value (“IC50 (M), inhibition … 20 pM VEGF110” for short) [15] of the same molecule?
Answer: Its value is 1.53e-11 M.

Question: And the “IC50 (M), inhibition of VEGFR1 signaling (luciferase), 20 pM VEGF121” value (“IC50 (M), inhibition … 20 pM VEGF121” for short) [16]?
Answer: Its value is 8.94e-12 M.

Question: And the “IC50 (M), inhibition of VEGFR1 signaling (luciferase), 20 pM VEGF165” value (human VEGF165 (REGN110) [17])?
Answer: Its value is 1.18e-11 M.

Question: What about the “t1/2 (dissociative half-life)” value (human VEGF165 (REGN110) [18]) of the same molecule?
Answer: Its value is at least 1160 min.

Question: What about the “IC50 (M), inhibition … 20 pM VEGF110” value [19] of the same molecule?
Answer: Its value is 1.15e-11 M.

Question: And the “IC50 (M), inhibition … 20 pM VEGF121” value [20]?
Answer: Its value is 1.26e-11 M.

Question: What about the “IC50 (M), inhibition of VEGFR1 signaling (luciferase), 20 pM VEGF165” value (human VEGF165 (REGN110) [21]) of the same molecule?
Answer: Its value is 2.09e-11 M.

Question: And the “2nM hVEGF165 Bound” value (human VEGF165 (REGN110) [22])?
Answer: Its value is 29 RU.

Question: And the “IC50 (M), inhibition … 20 pM VEGF110” value [23]?
Answer: Its value is 1.53e-11 M.

Question: What about the “IC50 (M), inhibition … 20 pM VEGF121” value [24] of the same molecule?
Answer: Its value is 9.64e-12 M.
